Our source for the stoichiometry N values is PMC11965310.

The target of experiment [1] is VHH H3-2. Description: crystal structure; 280 μM H3-2 with 1 mM tau-Cter peptide; 23% PEG-MME 2000, 0.1 M potassium acetate; 1.8 Å.
Experiment [2] concerns the target VHH H3-2. Description: SEC; Superdex 75 Increase 10/300 GL, PBS, 16 °C; 20 µM VHH without or with 40 µM tau-Cter peptide.

B1: VHH H3-2 (VHH)
VHH: EVQLQASGGGFVQPGGSLRLSCAASGYTSGDEIMGWFRQAPGKEREFVSAISWQSGTSTYYADSVKGRFTISRDNSKNTVYLQMNSLRAEDTATYYCAPMTLAETYYEWLISGYWGQGTQVTVSS
Broadly, the stoichiometry N is a count of units in the complex or per binding partner. As for B1, the stoichiometry N in experiment [1] and in experiment [2] was 2 each time.
